Tests used:
Assay in all cases: SPR, AAV on CM5 chip
[1] = target: AAV8 (adeno-associated virus serotype 8)
[2] = target: AAV9 (adeno-associated virus serotype 9)
[3] = target: AAV5 (adeno-associated virus serotype 5)

Row | Binder | Kd [1] | koff [1] | kon [1] | Kd [2] | koff [2] | kon [2] | Kd [3] | koff [3] | kon [3]
1 | A4-C1 (VHH) VQLQESGGGLVQPGGSLRLSCAASGSGFSINTMGWYRQAPGKQRELVATVTRDGSTNYADFVKGRFTISRDNAKNTVYLQMNSLRPEDTAVYYCHLDEVRESSWTTSNLWGQGTQVTVSSGGGGSGGGGSGGGGSVQLQESGGGLVQPGGSLRLSCAASGSGFSINTMGWYRQAPGKQRELVATVTRDGSTNYADFVKGRFTISRDNAKNTVYLQMNSLRPEDTAVYYCHLDEVRESSWTTSNLWGQGTQVTVSSGGGGSGGGGSGGGGSVQLQESGGGLVQPGGSLRLSCAASGSGFSINTMGWYRQAPGKQRELVATVTRDGSTNYADFVKGRFTISRDNAKNTVYLQMNSLRPEDTAVYYCHLDEVRESSWTTSNLWGQGTQVTVSS | 9.2 nM | 0.00164 s⁻¹ | 178000 M⁻¹ s⁻¹ | 1.03 nM | 1e-05 s⁻¹ | 9690 M⁻¹ s⁻¹ | 13.2 nM | 0.00138 s⁻¹ | 104000 M⁻¹ s⁻¹
2 | A4-C2 (VHH) VQLQESGGGLVQPGGSLRLSCAASGSAFSINTMGWYRQAPGKQRELVASVTPGGSTNYADSVKGRFTISRDNAKNTIYLQMNSLRPEDTAVYYCHLDEVRESSWTTSNLWGQGTQVTVSSGGGGSGGGGSGGGGSVQLQESGGGLVQPGGSLRLSCAASGSAFSINTMGWYRQAPGKQRELVASVTPGGSTNYADSVKGRFTISRDNAKNTIYLQMNSLRPEDTAVYYCHLDEVRESSWTTSNLWGQGTQVTVSSGGGGSGGGGSGGGGSVQLQESGGGLVQPGGSLRLSCAASGSAFSINTMGWYRQAPGKQRELVASVTPGGSTNYADSVKGRFTISRDNAKNTIYLQMNSLRPEDTAVYYCHLDEVRESSWTTSNLWGQGTQVTVSS | 0.359 nM | 5e-05 s⁻¹ | 139000 M⁻¹ s⁻¹ | 0.486 nM | 0.000125 s⁻¹ | 257000 M⁻¹ s⁻¹ | 0.691 nM | 0.000134 s⁻¹ | 194000 M⁻¹ s⁻¹
3 | A4-B2 (bispecific antibody) VQLQESGGGLVQAGGSLRLSCAASGSRFSINTMGWYRQAPGKQREFVATVTRGGNTNYAESVKGRFTISRDNAKNTVYLQMNSLRPEDTAVYYCHVDEVRDSSWTTSNIWGQGTQVTVSSGGGGSGGGGSGGGGSVQLQESGGGLVQAGGSLRLSCAASGSTFSINTMGWYRQAPGKQRELVATITRGGNTNYADSVKGRFTISRDNAKNTVYLQMNSLRPEDTAVYYCHVDEVRQSSWTTSNLWGQGTQVTVSS | 1.02 nM | 0.00014 s⁻¹ | 138000 M⁻¹ s⁻¹ | 8.35 nM | 0.0008 s⁻¹ | 95800 M⁻¹ s⁻¹ | 7.38 nM | 0.00117 s⁻¹ | 159000 M⁻¹ s⁻¹
4 | A4-B1 (VHH) VQLQESGGGLVQPGGSLRLSCAASGSIFSINLMGWYRQAPGKQRELVATITRGGNTNYAGSVKGRFTISRDNAKNTVYLQMNSLRPEDTAVYYCHVDEVRQSSWTTSNLWGQGTQVTVSSGGGGSGGGGSGGGGSVQLQESGGGLVQPGGSLRLSCAASGSIFSINLMGWYRQAPGKQRELVATITRGGNTNYAGSVKGRFTISRDNAKNTVYLQMNSLRPEDTAVYYCHVDEVRQSSWTTSNLWGQGTQVTVSS | 1.63 nM | 0.000154 s⁻¹ | 94500 M⁻¹ s⁻¹ | 0.715 nM | 0.00014 s⁻¹ | 196000 M⁻¹ s⁻¹ | 0.102 nM | 1.23e-05 s⁻¹ | 121000 M⁻¹ s⁻¹
5 | A4-C7 (bispecific antibody) VQLQESGGGLVQPGGSLRLSCAASGSNFSINTMGWYRQAPGKQRELVATVTRGGDTNYADSVKGRFTISRDNAKNTVYLQMNSLRPEDTAVYYCHVDEIRESSWTTSNLWGQGTQVTVSSGGGGSGGGGSGGGGSVQLQESGGGLVQPGGSLRLSCAASGSNFRINTMGWYRQAPGKQRELVAPVTRGGSTNYADSVKGRFTISRDNAKNTVYLQMNSLRPEDTAVYYCHVDEVRESSWTTSNLWGQGTQVTVSSGGGGSGGGGSGGGGSVQLQESGGGLVQPGGSLRLSCAASGSSFTINTMGWYRQAPGKQRELVAAVTRGGSTNYAGSVKGRFTISRDNAKNTIYLQMNSLRPEDTAVYYCHVDEIRQSSWTTSNLWGQGTQVTVSS | 3.7 nM | 0.00047 s⁻¹ | 127000 M⁻¹ s⁻¹ | 0.127 nM | 1.75e-05 s⁻¹ | 137000 M⁻¹ s⁻¹ | 0.0732 nM | 3.2e-05 s⁻¹ | 437000 M⁻¹ s⁻¹
6 | A4-C4 (bispecific antibody) VQLQESGGGLVQAGGSLRLSCAASGSRFSINTMGWYRQAPGKQREFVATVTRGGNTNYAESVKGRFTISRDNAKNTVYLQMNSLRPEDTAVYYCHVDEVRDSSWTTSNIWGQGTQVTVSSGGGGSGGGGSGGGGSVQLQESGGGLVQAGGSLRLSCAASGSRFSINTMGWYRQAPGKQREFVATVTRGGNTNYAESVKGRFTISRDNAKNTVYLQMNSLRPEDTAVYYCHVDEVRDSSWTTSNIWGQGTQVTVSSGGGGSGGGGSGGGGSVQLQESGGGLVQPGGSLRLSCAASGSNFRINTMGWYRQAPGKQRELVATVTRGGSTNYADSVKGRFTISRDNPKDTVYLQMNSLRPEDTAVYYCHVDEVRESSWTTSNLWGQGTQVTVSS | 2.36 nM | 0.00025 s⁻¹ | 106000 M⁻¹ s⁻¹ | 1.87 nM | 0.00031 s⁻¹ | 165000 M⁻¹ s⁻¹ | 6.72 nM | 0.00121 s⁻¹ | 180000 M⁻¹ s⁻¹
7 | A4-C3 (bispecific antibody) VQLQESGGGLVQPGGSLRLSCAASGSIFSINLMGWYRQAPGKQRELVATITRGGNTNYAGSVKGRFTISRDNAKNTVYLQMNSLRPEDTAVYYCHVDEVRQSSWTTSNLWGQGTQVTVSSGGGGSGGGGSGGGGSVQLQESGGGLVQPGGSLRLSCAASGSIFSINLMGWYRQAPGKQRELVATITRGGNTNYAGSVKGRFTISRDNAKNTVYLQMNSLRPEDTAVYYCHVDEVRQSSWTTSNLWGQGTQVTVSSGGGGSGGGGSGGGGSVQLQESGGGLVQPGGSLRLSCAASGSNFRINTMGWYRQAPGKQRELVATVTRGGSTNYADSVKGRFTISRDNPKDTVYLQMNSLRPEDTAVYYCHVDEVRESSWTTSNLWGQGTQVTVSS | 0.534 nM | 4e-05 s⁻¹ | 74900 M⁻¹ s⁻¹ | 0.491 nM | 9e-05 s⁻¹ | 183000 M⁻¹ s⁻¹ | 0.628 nM | 9e-05 s⁻¹ | 143000 M⁻¹ s⁻¹
8 | A4-C5 (bispecific antibody) VQLQESGGGLVQPGGSLRLSCAASGSNFRINTMGWYRQAPGKQRELVATVTRGGSTNYADSVKGRFTISRDNPKNTVYLQMNSLRPEDTAVYYCHVDEVRESSWTTSNLWGQGTQVTVSSGGGGSGGGGSGGGGSVQLQESGGGLVQPGGSLRLSCAASGSNFSINTMGWYRQAPGKQRELVATVTRGGDTNYADSVKGRFTISRDNAKNTVYLQMNSLRPEDTAVYYCHVDEIRESSWTTSNLWGQGTQVTVSSGGGGSGGGGSGGGGSVQLQESGGGLVQPGGSLRLSCAASGSNFRINTMGWYRQAPGKQRELVATVTRGGSTNYADSVKGRFTISRDNPKNTVYLQMNSLRPEDTAVYYCHVDEVRESSWTTSNLWGQGTQVTVSS | 4.97 nM | 0.00091 s⁻¹ | 183000 M⁻¹ s⁻¹ | 1.68 nM | 0.0002 s⁻¹ | 119000 M⁻¹ s⁻¹ | 7.86 nM | 0.0013 s⁻¹ | 165000 M⁻¹ s⁻¹
9 | A4-C9 (bispecific antibody) VQLQESGGGLVQPGGSLRLSCAASGSNFSINTMGWYRQAPGKQRELVATVTRGGDTNYADSVKGRFTISRDNAKNTVYLQMNSLRPEDTAVYYCHVDEIRESSWTTSNLWGQGTQVTVSSGGGGSGGGGSGGGGSVQLQESGGGLVQPGGSLRLSCAASGSNFSINTMGWYRQAPGKQRELVAALTRGGSTNYADSVKGRFTISRDNAKNTVYLQMNSLRPEDTAVYYCHVDEVRESSWTTSNLWGQGTQVTVSSGGGGSGGGGSGGGGSVQLQESGGGLVQPGGSLRLSCAASGSNFRINTMGWYRQAPGKQRELVAPVTRGGSTNYADSVKGRFTISRDNAKNTVYLQMNSLRPEDTAVYYCHVDEVRESSWTTSNLWGQGTQVTVSS | 1.14 nM | 0.00013 s⁻¹ | 114000 M⁻¹ s⁻¹ | 0.669 nM | 0.00013 s⁻¹ | 194000 M⁻¹ s⁻¹ | 0.777 nM | 5e-05 s⁻¹ | 64300 M⁻¹ s⁻¹
10 | A4-C6 (bispecific antibody) VQLQESGGGLVQPGGSLRLSCAASGSNFRINTMGWYRQAPGKQRELVAPVTRGGSTNYADSVKGRFTISRDNAKNTVYLQMNSLRPEDTAVYYCHVDEVRESSWTTSNLWGQGTQVTVSSGGGGSGGGGSGGGGSVQLQESGGGLVQPGGSLRLSCAASGSNFSINTMGWYRQAPGKQRELVAALTRGGSTNYADSVKGRFTISRDNAKNTVYLQMNSLRPEDTAVYYCHVDEVRESSWTTSNLWGQGTQVTVSSGGGGSGGGGSGGGGSVQLQESGGGLVQPGGSLRLSCAASGSNFSINTMGWYRQAPGKQRELVATVTRGGDTNYADSVKGRFTISRDNAKNTVYLQMNSLRPEDTAVYYCHVDEIRESSWTTSNLWGQGTQVTVSS | 2.67 nM | 0.00044 s⁻¹ | 165000 M⁻¹ s⁻¹ | 0.55 nM | 2.5e-05 s⁻¹ | 45400 M⁻¹ s⁻¹ | 0.785 nM | 0.000139 s⁻¹ | 177000 M⁻¹ s⁻¹
11 | A4-C8 (bispecific antibody) VQLQESGGGLVQPGGSLRLSCAASGSNFRINTMGWYRQAPGKQRELVAPVTRGGSTNYADSVKGRFTISRDNAKNTVYLQMNSLRPEDTAVYYCHVDEVRESSWTTSNLWGQGTQVTVSSGGGGSGGGGSGGGGSVQLQESGGGLVQPGGSLRLSCAASGSNFSINTMGWYRQAPGKQRELVATVTRGGDTNYADSVKGRFTISRDNAKNTVYLQMNSLRPEDTAVYYCHVDEIRESSWTTSNLWGQGTQVTVSSGGGGSGGGGSGGGGSVQLQESGGGLVQPGGSLRLSCAASGSNFSINTMGWYRQAPGKQRELVAALTRGGSTNYADSVKGRFTISRDNAKNTVYLQMNSLRPEDTAVYYCHVDEVRESSWTTSNLWGQGTQVTVSS | 2.81 nM | 0.00037 s⁻¹ | 132000 M⁻¹ s⁻¹ | 0.279 nM | 5e-05 s⁻¹ | 179000 M⁻¹ s⁻¹ | 0.69 nM | 0.00013 s⁻¹ | 188000 M⁻¹ s⁻¹

From patent publication US20260193326A1
